Results: PMC5177617, “Complement Protein C1q Interacts with DC-SIGN via Its Globular Domain and Thus May Interfere with HIV-1 Transmission” (Frontiers in Immunology, 2016)
Changes are numbered by the printed parent chain.

T1: soluble DC-SIGN tetramer (entire extracellular domain including the α-helical neck region) (UniProt Q9NNX6 59-404)
T1 construct: DC-SIGN, entire extracellular domain (α-helical neck region and carbohydrate recognition domain); also called DC-SIGN ECD; tetrameric DC-SIGN
T1 sequence (looked up): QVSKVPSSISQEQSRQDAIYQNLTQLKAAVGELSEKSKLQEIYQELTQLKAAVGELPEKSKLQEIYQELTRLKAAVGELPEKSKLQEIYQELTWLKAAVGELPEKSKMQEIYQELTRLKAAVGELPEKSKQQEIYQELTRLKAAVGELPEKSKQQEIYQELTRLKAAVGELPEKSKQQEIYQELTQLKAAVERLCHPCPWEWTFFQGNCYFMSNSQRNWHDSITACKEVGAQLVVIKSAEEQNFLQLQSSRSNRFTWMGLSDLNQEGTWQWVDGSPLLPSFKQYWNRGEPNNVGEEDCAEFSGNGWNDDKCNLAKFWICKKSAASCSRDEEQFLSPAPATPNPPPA

T2: soluble DC-SIGNR tetramer (entire extracellular domain including the α-helical neck region) (UniProt Q9H2X3 71-399)
T2 construct: DC-SIGNR (DC-SIGN-related), entire extracellular domain (α-helical neck region and carbohydrate recognition domain); also called DC-SIGNR ECD
T2 sequence (looked up): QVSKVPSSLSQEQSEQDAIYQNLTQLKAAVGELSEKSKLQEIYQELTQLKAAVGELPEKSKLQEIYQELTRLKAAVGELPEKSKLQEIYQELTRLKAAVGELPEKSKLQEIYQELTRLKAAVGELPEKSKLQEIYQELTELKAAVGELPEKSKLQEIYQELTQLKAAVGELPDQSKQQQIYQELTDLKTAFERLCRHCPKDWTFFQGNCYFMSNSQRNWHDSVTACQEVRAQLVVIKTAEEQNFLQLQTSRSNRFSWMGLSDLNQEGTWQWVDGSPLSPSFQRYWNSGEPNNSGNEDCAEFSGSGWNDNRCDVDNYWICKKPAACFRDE

B1: recombinant globular head module ghA of human C1q, fused to maltose-binding protein (domain or fragment, UniProt P02745 110-245, looked up)
chain: KDQPRPAFSAIRRNPPMGGNVVIFDTVITNQEEPYQNHSGRFVCTVPGYYYFTFQVLSQWEICLSIVSSSRGQVRRSLGFCDTTNKGLFQVVSGGMVLQLQQGDQVWVEKDPKKGHIYQGSEADSVFSGFLIFPSA
notes: globular head region of the A chain of human C1q (ghA module); as I recall ghA is residues 88-223 of the mature A chain with MBP at the N-terminus; source: E. coli BL21, purified (amylose resin)
B2: recombinant globular head module ghB of human C1q, fused to maltose-binding protein (domain or fragment, UniProt P02746 117-253, looked up)
chain: KATQKIAFSATRTINVPLRRDQTIRFDHVITNMNNNYEPRSGKFTCKVPGLYYFTYHASSRGNLCVNLMRGRERAQKVVTFCDYAYNTFQVTTGGMVLKLEQGENVFLQATDKNSLLGMEGANSIFSGFLLFPDMEA
notes: globular head region of the B chain of human C1q (ghB module); source: E. coli BL21, purified (amylose resin)
B3: ghB substitution mutant Leu^B136Gly (domain or fragment)
chain: B2 chain with K47G
B4: recombinant globular head module ghC of human C1q, fused to maltose-binding protein (domain or fragment, UniProt P02747 115-245, looked up)
chain: KQKFQSVFTVTRQTHQPPAPNSLIRFNAVLTNPQGDYDTSTGKFTCKVPGLYYFVYHASHTANLCVLLYRSGVKVVTFCGHTSKTNQVNSGGVLLRLQVGEEVWLAVNDYYDMVGIQGSDSVFSGFLLFPD
notes: globular head region of the C chain of human C1q (ghC module); as I recall ghC is residues 87-217 of the mature C chain with MBP at the N-terminus; source: E. coli BL21, purified (amylose resin)

How the values were obtained:
[1] = biological target: soluble DC-SIGN tetramer (entire extracellular domain including the α-helical neck region) (UniProt Q9NNX6); assay: ELISA; DC-SIGN or DC-SIGNR (tetramer or monomer) coated (5, 2.5, 1.25, 0.625 µg/well, carbonate-bicarbonate buffer pH 9.6); ghA, ghB, ghC or mutants 2.5 µg/100 µl in 50 mM NaCl, 100 mM Tris-HCl pH 7.5, 5 mM CaCl2; 37°C […] then 4°C […]; detected with anti-MBP; percent binding against the wild-type module as 100%
[2] = biological target: soluble DC-SIGNR tetramer (entire extracellular domain including the α-helical neck region) (UniProt Q9H2X3); assay: as above
[3] = biological target: T1, soluble DC-SIGN tetramer (entire …); assay: ELISA; DC-SIGN or DC-SIGNR (tetramer or monomer) coated (5, 2.5, 1.25, 0.625 µg/well, carbonate-bicarbonate buffer pH 9.6); ghA, ghB, ghC or mutants 2.5 µg/100 µl in 50 mM NaCl, 100 mM Tris-HCl pH 7.5, 5 mM CaCl2; 37°C 1.5 h then 4°C 1.5 h; detected with anti-MBP; percent binding against the wild-type module as 100%; conditions: both partners purified
[4] = biological target: T2, soluble DC-SIGNR tetramer (entire …); assay: as above; conditions: both partners purified

Row | Molecule | % binding (wild-type module = 100%) [1] [%] | % binding (wild-type module = 100%) [2] [%] | other results
1 | ghA substitution mutant Arg^A162Glu (from UniProt P02745 23-245) (domain or fragment) | 66.4 | 94.8 | % reduction in binding against wild-type ghA (at 5 µg of DC-SIGNR) [2]: 15%
2 | ghB substitution mutant Arg^B163Glu (from UniProt P02746 28-253) (domain or fragment) | 48.3 | 65.7 | 
3 | ghB substitution mutant Arg^B163Ala (from UniProt P02746 28-253) (domain or fragment) | 68.8 | 120 | 
4 | ghB substitution mutant Arg^B129Ala (from UniProt P02746 28-253) (domain or fragment) | 75 | 92.5 | 
5 | ghC substitution mutant His^101Ala (from UniProt P02747 29-245) (domain or fragment) | 90.2 | 113 | 
6 | ghB substitution mutant ArgB114Ala (from UniProt P02746 28-253) (domain or fragment) | 57.4 | 61.4 | % reduction in binding against wild-type ghB [1]: 80%
7 | ghB substitution mutant Arg^B114Gln (from UniProt P02746 28-253) (domain or fragment) | 52.5 | 50.3 | % reduction in binding against wild-type ghB [1]: 80%
8 | ghA substitution mutant Arg^A162Ala (from UniProt P02745 23-245) (domain or fragment) | 77.7 | 73.2 | 
9 | ghB substitution mutant Tyr^B175Leu (from UniProt P02746 28-253) (domain or fragment) | 37.9 | 37.2 | % decrease in binding against wild-type ghB (at 0.625 µg of DC-SIGN) [1]: < 90%; % reduction in binding against wild-type ghB [1]: 82%; % decrease in binding against wild-type ghB (at 0.625 µg of DC-SIGNR) [2]: < 90%
10 | ghC substitution mutant Arg^156Glu (from UniProt P02747 29-245) (domain or fragment) | 101 | 75.8 | 
11 | ghB substitution mutant His^B117Asp (from UniProt P02746 28-253) (domain or fragment) | 36.4 | 41 | 
12 | ghB substitution mutant Arg^B129Glu (from UniProt P02746 28-253) (domain or fragment) | 93.9 | 137 | 
13 | ghC substitution mutant Leu^170Glu (domain or fragment) | 78.3 | 79.8 | 
14 | B1 |  |  | % binding (wild-type module = 100%) [3]: 100%; % binding (wild-type module = 100%) [4]: 100%
15 | B2 |  |  | % binding (wild-type module = 100%) [3]: 100%; % binding (wild-type module = 100%) [4]: 100%
16 | B3 |  |  | % binding (wild-type module = 100%) [3]: 47.7%; % binding (wild-type module = 100%) [4]: 54%
17 | B4 |  |  | % binding (wild-type module = 100%) [3]: 100%; % binding (wild-type module = 100%) [4]: 100%
